First the molecules themselves.
B1: Apoptosis regulator ced-9 (Caenorhabditis elegans), P41958 (parent)
chain: MTRCTADNSLTNPAYRRRTMATGEMKEFLGIKGTEPTDFGINSDAQDLPSPSRQASTRRMSIGESIDGKINDWEEPRLDIEGFVVDYFTHRIRQNGMEWFGAPGLPCGVQPEHEMMRVMGTIFEKKHAENFETFCEQLLAVPRISFSLYQDVVRTVGNAQTDQCPMSYGRLIGLISFGGFVAAKMMESVELQGQVRNLFVYTSLFIKTRIRNNWKEHNRSWDDFMTLGKQMKEDYERAEAEKVGRRKQNRRWSMIGAGVTAGAIGIVGVVVCGRMMFSLK
partner: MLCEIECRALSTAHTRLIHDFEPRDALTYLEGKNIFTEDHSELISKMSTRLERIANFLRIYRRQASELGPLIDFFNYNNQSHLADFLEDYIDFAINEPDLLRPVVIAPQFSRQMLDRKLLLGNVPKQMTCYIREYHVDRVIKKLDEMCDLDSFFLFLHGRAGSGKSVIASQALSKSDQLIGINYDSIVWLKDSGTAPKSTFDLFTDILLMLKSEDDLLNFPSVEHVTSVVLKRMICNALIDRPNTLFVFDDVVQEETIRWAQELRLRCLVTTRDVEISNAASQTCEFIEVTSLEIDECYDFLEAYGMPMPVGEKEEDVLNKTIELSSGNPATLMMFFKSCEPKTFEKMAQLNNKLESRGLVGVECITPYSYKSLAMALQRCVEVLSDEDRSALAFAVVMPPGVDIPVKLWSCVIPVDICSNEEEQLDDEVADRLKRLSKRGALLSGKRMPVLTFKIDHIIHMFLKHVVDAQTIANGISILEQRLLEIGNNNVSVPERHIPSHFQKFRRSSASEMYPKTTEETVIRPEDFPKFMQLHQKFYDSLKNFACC

This assay covers variants of B1. Particulars: with ced4_caeel ced-4, P30429.
Regarding Y149N, the “effect of a mutation on the interaction” value was “decreasing interaction”.

(Values after IntAct's records for PubMed 9024666.)
